According to article PMC6330308, “Light-Induced Thiol Oxidation of Recoverin Affects Rhodopsin Desensitization” (Frontiers in Molecular Neuroscience, 2018):
Where a chain is given by its changes, count along the chain named.

T1: Recombinant myristoylated bovine recoverin (reduced monomer) (bovine, UniProt P21457 2-202, N-terminal myristoyl group (degree of myristoylation more than 95%))
T1 construct: recoverin, bovine, recombinant wild type, myristoylated, C39 thiol reduced; Myristoylation implies that the initiator Met is removed and Gly2 carries the myristoyl group (surmised); also called RmRec; reduced monomer of recombinant wild type recoverin; source: recombinant, prepared according to previously published procedure (Zernii et al., 2011)
T1 sequence: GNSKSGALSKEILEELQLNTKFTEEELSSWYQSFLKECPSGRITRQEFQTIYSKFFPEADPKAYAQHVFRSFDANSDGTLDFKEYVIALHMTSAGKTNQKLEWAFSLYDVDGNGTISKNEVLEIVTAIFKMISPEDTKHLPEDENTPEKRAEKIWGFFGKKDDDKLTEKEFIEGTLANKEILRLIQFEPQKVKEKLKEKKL

T2: Oxidized monomer of recombinant wild type recoverin (bovine, UniProt P21457 2-202, N-terminal myristoyl group; C39 thiol oxidized (sulfenic/sulfinic acid; Figure 9 legend: C39 converted into sulfinic acid))
T2 construct: recoverin, bovine, recombinant wild type, myristoylated, monomer with oxidized C39; also called OmRec; thiol-oxidized monomer of recoverin; source: prepared from RmRec by incubation with 0.005% H2O2 at 30°C for 5 h, separated by gel-filtration (Superdex 75)
T2 sequence: T1 sequence

T3: GRK1 (rhodopsin kinase) (bovine (endogenous in ROS), UniProt P28327 1-561)
T3 sequence (looked up): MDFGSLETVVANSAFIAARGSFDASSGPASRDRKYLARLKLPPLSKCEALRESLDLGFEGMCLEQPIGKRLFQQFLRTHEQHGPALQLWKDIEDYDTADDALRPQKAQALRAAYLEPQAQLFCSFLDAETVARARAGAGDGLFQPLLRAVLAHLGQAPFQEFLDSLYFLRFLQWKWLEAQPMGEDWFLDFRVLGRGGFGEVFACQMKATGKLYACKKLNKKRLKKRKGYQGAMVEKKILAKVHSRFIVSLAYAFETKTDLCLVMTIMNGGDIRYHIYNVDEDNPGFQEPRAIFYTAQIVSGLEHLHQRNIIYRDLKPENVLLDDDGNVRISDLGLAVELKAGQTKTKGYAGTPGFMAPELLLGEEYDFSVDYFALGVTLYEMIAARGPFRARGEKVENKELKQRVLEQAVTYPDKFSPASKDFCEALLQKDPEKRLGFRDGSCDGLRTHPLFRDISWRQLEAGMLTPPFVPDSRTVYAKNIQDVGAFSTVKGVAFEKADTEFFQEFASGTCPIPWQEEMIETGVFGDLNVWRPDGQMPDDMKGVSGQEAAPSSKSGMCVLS

B1: N-terminal domain of GRK1 (amino acids Met1-Gly183) fused with glutathione-S-transferase (domain or fragment, UniProt P28327 1-183, looked up)
chain: MDFGSLETVVANSAFIAARGSFDASSGPASRDRKYLARLKLPPLSKCEALRESLDLGFEGMCLEQPIGKRLFQQFLRTHEQHGPALQLWKDIEDYDTADDALRPQKAQALRAAYLEPQAQLFCSFLDAETVARARAGAGDGLFQPLLRAVLAHLGQAPFQEFLDSLYFLRFLQWKWLEAQPMG
notes: GRK1 (rhodopsin kinase), N-terminal domain, amino acids Met1-Gly183; also called N-GRK1; N-terminal domain of rhodopsin kinase; source: obtained according to previously published procedure (Grigoriev et al., 2012)
B2: N-terminal fragment of GRK1 (amino acids M1-S25) fused with glutathione-S-transferase (domain or fragment, UniProt P28327 1-25, looked up)
chain: MDFGSLETVVANSAFIAARGSFDAS
notes: GRK1 (rhodopsin kinase), fragment M1-S25; also called 1-25GRK1; 1-25RK; source: obtained according to previously published procedure (Grigoriev et al., 2012)
B3: Recoverin mutant C39D (natural protein, bovine)
chain: T1 sequence with C38D
modifications: N-terminal myristoyl group (degree of myristoylation more than 95%)

Key:
[1] = biological target: GRK1 (rhodopsin kinase) (bovine (endogenous in ROS)) (UniProt P28327)
[2] = biological target: N-terminal domain of GRK1 (amino acids Met1-Gly183) fused with glutathione-S-transferase (UniProt P28327); test: SPR; GST-fused N-GRK1 or 1-25GRK1 immobilised by amine coupling on ProteOn GLH chip; recoverin forms 1-40 uM as analyte; 25°C; 10 mM HEPES, 150 mM NaCl, 0.05% TWEEN 20, pH 7.4, 1 mM CaCl2, 2 mM MgCl2; global fit to heterogeneous ligand model
[3] = biological target: N-terminal fragment of GRK1 (amino acids M1-S25) fused with glutathione-S-transferase (UniProt P28327); test: as above
[4] = biological target: T1, Recombinant myristoylated bovine …; test: as above; conditions: both partners purified
[5] = biological target: T2, Oxidized monomer of recombinant wild …; test: as above; conditions: both partners purified
[6] = biological target: B3; test: as above; conditions: both partners purified
[7] = biological target: T3, GRK1 (rhodopsin kinase); test: cell-based or functional assay

Molecule: Disulfide dimer of recombinant wild type recoverin (from UniProt P21457 2-202) (complex)
- inhibition of GRK1 in rhodopsin phosphorylation assay, 20 uM dRec, 0.01 uM free Ca2+ [1]: 40%
- inhibition of GRK1 in rhodopsin phosphorylation assay, 20 uM dRec, 200 uM free Ca2+ [1]: 70%
- Kd [2]: 31.3 µM
- Kd [3]: 31.2 µM

Molecule: B1
- Kd [4]: 5.35 µM
- Kd [5]: 31.3 µM
- Kd [6]: 50.2 µM

Molecule: B2
- Kd [4]: 10.5 µM
- Kd [5]: 16 µM
- Kd [6]: 31.3 µM

Molecule: B3
- inhibition of GRK1 in rhodopsin phosphorylation assay, 40 uM C39D, 200 uM free Ca2+; decline of inhibitory efficiency against RmRec [7]: ~2 fold
